Residue numbers refer to the chain shown, from its start.
Tests used:
Experiment in all cases: cell-based or functional assay
[1] = target: T1, factor VIIIa A1/A3C1C2 dimer, D27A (human, UniProt P00451 20-391; P00451 1709-2351)
T1 chain 1: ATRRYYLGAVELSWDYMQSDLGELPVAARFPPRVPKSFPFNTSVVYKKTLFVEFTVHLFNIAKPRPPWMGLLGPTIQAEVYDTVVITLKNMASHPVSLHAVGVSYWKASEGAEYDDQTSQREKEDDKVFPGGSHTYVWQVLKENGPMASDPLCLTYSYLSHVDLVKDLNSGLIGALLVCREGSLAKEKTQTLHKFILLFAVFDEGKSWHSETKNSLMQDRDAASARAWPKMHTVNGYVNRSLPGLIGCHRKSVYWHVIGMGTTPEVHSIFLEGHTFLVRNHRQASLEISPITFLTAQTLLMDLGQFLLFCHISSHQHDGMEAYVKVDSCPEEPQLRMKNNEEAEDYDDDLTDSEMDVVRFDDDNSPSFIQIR
T1 chain 2: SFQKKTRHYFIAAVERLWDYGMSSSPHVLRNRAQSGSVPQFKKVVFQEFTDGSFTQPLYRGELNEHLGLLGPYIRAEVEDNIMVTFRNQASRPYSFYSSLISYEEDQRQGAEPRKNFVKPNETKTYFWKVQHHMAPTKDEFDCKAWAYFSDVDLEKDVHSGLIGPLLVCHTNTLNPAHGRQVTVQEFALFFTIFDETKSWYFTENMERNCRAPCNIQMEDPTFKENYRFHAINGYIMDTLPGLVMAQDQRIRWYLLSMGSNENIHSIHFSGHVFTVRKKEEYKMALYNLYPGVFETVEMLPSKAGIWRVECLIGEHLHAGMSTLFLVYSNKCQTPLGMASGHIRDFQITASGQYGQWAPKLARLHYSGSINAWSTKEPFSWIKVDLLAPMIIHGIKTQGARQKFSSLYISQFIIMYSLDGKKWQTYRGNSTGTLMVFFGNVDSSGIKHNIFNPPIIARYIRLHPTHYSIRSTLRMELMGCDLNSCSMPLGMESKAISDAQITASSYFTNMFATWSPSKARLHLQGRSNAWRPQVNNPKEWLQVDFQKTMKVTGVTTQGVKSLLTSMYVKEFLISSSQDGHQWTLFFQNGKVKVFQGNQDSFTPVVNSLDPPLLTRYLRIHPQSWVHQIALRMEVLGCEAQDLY

[2] = target: T2, factor VIIIa A1/A3C1C2 dimer, Y1792F (human, UniProt P00451 20-391; P00451 1709-2351)
T2 sequence 1: T1 chain 1 with A27D
T2 sequence 2: T1 chain 2 with Y103F

[3] = target: T3, factor VIIIa A1/A3C1C2 dimer, E287A (human, UniProt P00451 20-391; P00451 1709-2351)
T3 chain 1: T1 chain 1 with A27D, E287A
T3 chain 2: T1 chain 2

Factor VIIIa decay rate relative to wild type, FIXa (+) [1]: 0.79 relative to wild type
Factor VIIIa decay rate, FIXa (+) [1]: 0.0089 min⁻¹
Factor VIIIa decay rate relative to wild type, FIXa (+) [2]: 38.4 relative to wild type
Factor VIIIa decay rate relative to wild type, FIXa (-) [2]: 11.5 relative to wild type
Factor VIIIa decay rate, FIXa (+) [2]: 0.433 min⁻¹
Factor VIIIa decay rate, FIXa (-) [2]: 0.724 min⁻¹
Factor VIIIa decay rate relative to wild type, FIXa (+) [3]: 0.78 relative to wild type
Factor VIIIa decay rate, FIXa (+) [3]: 0.0088 min⁻¹
B1: factor VIIIa A2 subunit, wild type (other)
chain: SVAKKHPKTWVHYIAAEEEDWDYAPLVLAPDDRSYKSQYLNNGPQRIGRKYKKVRFMAYTDETFKTREAIQHESGILGPLLYGEVGDTLLIIFKNQASRPYNIYPHGITDVRPLYSRRLPKGVKHLKDFPILPGEIFKYKWTVTVEDGPTKSDPRCLTRYYSSFVNMERDLASGLIGPLLICYKESVDQRGNQIMSDKRNVILFSVFDENRSWYLTENIQRFLPNPAGVQLEDPEFQASNIMHSINGYVFDSLQLSVCLHEVAYWYILSIGAQTDFLSVFFSGYTFKHKMVYEDTLTLFPFSGETVFMSMENPGLWILGCHNSDFRNRGMTALLKVSSCDKNTGDYYEDSYEDISAYLLSKNNAIEPR
